IntAct's records for PubMed 24076405

B1: Centrosomal P4.1-associated protein (Homo sapiens), Q9HC77 (parent)
chain: MFLMPTSSELNSGQNFLTQWMTNPSRAGVILNRGFPILEADKEKRAAVDISTSFPIKGTHFSDSFSFINEEDSLLEEQKLESNNPYKPQSDKSETHTAFPCIKKGPQVAACHSAPGHQEENKNDFIPDLASEFKEGAYKDPLFKKLEQLKEVQQKKQEQLKRQQLEQLQRLMEEQEKLLTMVSGQCTLPGLSLLPDDQSQKHRSPGNTTTGERATCCFPSYVYPDPTQEETYPSNILSHEQSNFCRTAHGDFVLTSKRASPNLFSEAQYQEAPVEKNNLKEENRNHPTGESILCWEKVTEQIQEANDKNLQKHDDSSEVANIEERPIKAAIGERKQTFEDYLEEQIQLEEQELKQKQLKEAEGPLPIKAKPKQPFLKRGEGLARFTNAKSKFQKGKESKLVTNQSTSEDQPLFKMDRQQLQRKTALKNKELCADNPILKKDSKARTKSGSVTLSQKPKMLKCSNRKSLSPSGLKIQTGKKCDGQFRDQIKFENKVTSNNKENVTECPKPCDTGCTGWNKTQGKDRLPLSTGPASRLAAKSPIRETMKESESSLDVSLQKKLETWEREKEKENLELDEFLFLEQAADEISFSSNSSFVLKILERDQQICKGHRMSSTPVKAVPQKTNPADPISHCNRSEDLDHTAREKESECEVAPKQLHSLSSADELREQPCKIRKAVQKSTSENQTEWNARDDEGVPNSDSSTDSEEQLDVTIKPSTEDRERGISSREDSPQVCDDKGPFKDTRTQEDKRRDVDLDLSDKDYSSDESIMESIKHKVSEPSRSSSLSLSKMDFDDERTWTDLEENLCNHDVVLGNESTYGTPQTCYPNNEIGILDKTIKRKIAPVKRGEDLSKSRRSRSPPTSELMMKFFPSLKPKPKSDSHLGNELKLNISQDQPPGDNARSQVLREKIIELETEIEKFKAENASLAKLRIERESALEKLRKEIADFEQQKAKELARIEEFKKEEMRKLQKERKVFEKYTTAARTFPDKKEREEIQTLKQQIADLREDLKRKETKWSSTHSRLRSQIQMLVRENTDLREEIKVMERFRLDAWKRAEAIESSLEVEKKDKLANTSVRFQNSQISSGTQVEKYKKNYLPMQGNPPRRSKSAPPRDLGNLDKGQAASPREPLEPLNFPDPEYKEEEEDQDIQGEISHPDGKVEKVYKNGCRVILFPNGTRKEVSADGKTITVTFFNGDVKQVMPDQRVIYYYAAAQTTHTTYPEGLEVLHFSSGQIEKHYPDGRKEITFPDQTVKNLFPDGQEESIFPDGTIVRVQRDGNKLIEFNNGQRELHTAQFKRREYPDGTVKTVYANGHQETKYRSGRIRVKDKEGNVLMDTEL
partner: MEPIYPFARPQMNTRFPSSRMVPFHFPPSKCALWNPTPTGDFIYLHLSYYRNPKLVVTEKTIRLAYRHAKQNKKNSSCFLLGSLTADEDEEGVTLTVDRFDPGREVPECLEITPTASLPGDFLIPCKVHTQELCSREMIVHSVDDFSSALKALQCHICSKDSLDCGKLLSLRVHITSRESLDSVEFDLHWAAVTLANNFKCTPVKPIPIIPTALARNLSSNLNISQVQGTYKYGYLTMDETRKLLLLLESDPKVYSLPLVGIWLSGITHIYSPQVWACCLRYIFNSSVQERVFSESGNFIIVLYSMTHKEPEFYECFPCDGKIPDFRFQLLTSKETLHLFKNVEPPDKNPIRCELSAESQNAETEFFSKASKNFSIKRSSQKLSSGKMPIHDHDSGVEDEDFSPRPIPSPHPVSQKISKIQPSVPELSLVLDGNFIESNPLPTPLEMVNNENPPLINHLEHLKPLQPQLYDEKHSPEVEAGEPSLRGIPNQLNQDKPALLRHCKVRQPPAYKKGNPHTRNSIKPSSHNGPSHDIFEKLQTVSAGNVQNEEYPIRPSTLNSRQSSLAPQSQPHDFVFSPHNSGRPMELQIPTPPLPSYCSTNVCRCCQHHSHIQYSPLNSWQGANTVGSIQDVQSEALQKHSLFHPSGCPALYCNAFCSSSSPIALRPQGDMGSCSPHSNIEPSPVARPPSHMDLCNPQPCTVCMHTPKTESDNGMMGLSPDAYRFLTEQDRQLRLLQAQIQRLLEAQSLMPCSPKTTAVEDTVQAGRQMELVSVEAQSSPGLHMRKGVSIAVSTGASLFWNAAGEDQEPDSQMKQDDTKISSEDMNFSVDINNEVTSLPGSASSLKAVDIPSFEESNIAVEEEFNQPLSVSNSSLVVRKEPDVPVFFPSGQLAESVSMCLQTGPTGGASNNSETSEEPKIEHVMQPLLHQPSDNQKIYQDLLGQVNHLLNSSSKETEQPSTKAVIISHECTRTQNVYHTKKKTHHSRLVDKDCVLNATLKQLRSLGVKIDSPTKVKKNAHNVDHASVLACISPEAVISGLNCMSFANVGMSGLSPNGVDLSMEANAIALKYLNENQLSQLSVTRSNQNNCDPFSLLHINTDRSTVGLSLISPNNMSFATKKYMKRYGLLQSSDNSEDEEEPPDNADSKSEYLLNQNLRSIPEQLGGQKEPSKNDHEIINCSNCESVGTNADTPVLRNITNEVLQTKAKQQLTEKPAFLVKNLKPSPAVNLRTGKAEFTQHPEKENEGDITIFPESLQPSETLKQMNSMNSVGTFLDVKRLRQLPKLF
B2: SCL-interrupting locus protein (Homo sapiens), Q15468 (parent)
chain: B1 partner

Variants of: B1
Conditions: with stil_human STIL

Effect of a mutation on the interaction, decreasing interaction strength:
E1235K
E1235V
F1229A
Y1208A
Y1210A

Variants of: B2
Conditions: with cpap_human CPAP

Effect of a mutation on the interaction, decreasing interaction strength:
R405I
K419E
